Source: publication PMC7835349 (Communications Biology, 2021)
Entries after “also recorded” stand apart in the source; their conditions may differ.

Experiments:
[1] = tested on: telemetered dogs; assay: Conscious dog telemetry (QRS amplitude and other cardiovascular parameters, tolerability)
[2] = Plasma pharmacokinetics after IV bolus in C.B-17 SCID mouse; assay type: in vivo; details: mouse, at 10 mg/kg or equivalent
Experimental: Pharmacokinetic studies were carried out in the female C.B-17 SCID mouse. Either freshly prepared solutions of AZD4320 in 30% hydroxypropyl-β-cyclodextrin or drug-dendrimer conjugates in phosphate buffered saline were injected as a bolus into the tail vein at dosing volume of 5 ml/kg. Blood samples were collected at different time points post dose and analysed as below.
Blood samples were collected from the jugular vein by venepuncture into K2EDTA (as anticoagulant) tubes. Immediately following collection into the K2EDTA tube the samples were mixed gently and kept on crushed ice until centrifugation. Within 30 mins of blood collection, each sample was centrifuged (1500 g for 10 min at 4 °C) to generate plasma which was kept on wet ice at all times in polypropylene tubes. Duplicate 50 μL aliquots were transferred immediately after centrifugation into uniquely labelled polypropylene tubes (‘released’ AZD4320) containing equivalent amount (50 μL) of 0.2 M citric acid solution, inverted 10 times and then stored in a freezer set to maintain a temperature of −80 °C, until analysis.
The concentrations of ‘total’ AZD4320 were determined in plasma by overnight incubation with hydrazine followed by protein precipitation with acetonitrile and subsequent liquid/liquid extraction. Liquid chromatography with mass spectrometric detection (LC-MS/MS, details in Supplementary Table 5) was used to quantitate both ‘released’ and ‘total’ AZD4320.
Sample analyses were performed in batches containing study samples, calibration standards at 10 concentration levels, QC samples at three concentration levels in duplicate and blank samples. The analytical run acceptance criteria for calibration standards and QC samples was that at least 75% of back-calculated concentrations for calibration standards and at least 2/3 of the QC samples (at least 50% at each concentration level) should be within ±20% (±25% at LLOQ) from nominal value.

[3] = tested on: telemetered rats; assay: Conscious rat telemetry (QRS amplitude, blood pressure, tolerability); details: telemetered rat; AZD4320 10 mg/kg, conjugates 30 mg/kg IV;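 also: male Han Wistar rats carrying implanted telemetry transmitters, with ECG and arterial pressure recorded continuously while unrestrained in their home cage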
Description: Male Han Wistar rats were implanted with HD‐S11 transmitters (Data Sciences International, St. Paul, MN USA) under isoflurane anaesthesia, the telemetry transmitter was placed in the peritoneal cavity, the arterial blood pressure catheter was placed in the terminal abdominal aorta and the ECG electrodes were sutured, one at the dorsal surface of the xiphoid process and one at the anterior mediastinum, close to the right atrium[42]. Animals were allowed to recover for at least 2 weeks and were around 2–3 months at the time of experimentation. The animals were pair‐housed in standard rat cages with a non‐instrumented companion throughout the study. Cages were prepared with bedding material and enrichment.
Telemetry recordings took place in the home cage. […] The animals were removed from the cage temporarily for dosing and blood sampling. Animals were not subject to restraint except where dosing and blood sampling was performed. Data acquisition used Dataquest Open A.R.T.™ with HEM software version 4.2 (Notocord Inc).
For evaluation of AZD4320, n = 8 rats received single doses of 0 (vehicle: 30% Kleptose, pH9) or 10 mg/kg AZD4320, administered as a 30-min intravenous infusion. A cross-over study design was used, with an interval of 7 days between treatments.
Data for all parameters were collected continuously during the recording period. The continuous data from each animal was binned into chosen time intervals of varying length and averaged to generate a single data point for each reported nominal time. Each reported nominal timepoint was then averaged across each of the animals tested for each dose level.

[4] = dog, AZD0466 10 mg/kg (3 mg/kg AZD4320 equivalent), 1 h infusion
[5] = dog, AZD0466 30 mg/kg (9 mg/kg AZD4320 equivalent), 1 h infusion
[6] = dog, AZD0466 60 mg/kg (18 mg/kg AZD4320 equivalent), 1 h infusion

## AZD4320-MIDA-PEG2100 [AZD0466]
[1]; conscious telemetered dogs, 1-hour infusion
  other cardiovascular effects: A small increase in diastolic BP, a transient and delayed-onset small increase in heart rate, a decrease in dP/dt+ (an index of cardiac contractility) and a decrease in PR interval
[1]; conscious telemetered dogs, 1-hour infusion, 30 and 60 mg/kg
  effect on QRS amplitude: dose-dependent decrease in QRS amplitude that returned to baseline
[1]; dog
  NOEL (no observed effect level), cardiovascular system: 10 mg/kg
  improvement in cardiovascular tolerability based on dose vs AZD4320: 18 fold
[1]; dog, 10 mg/kg AZD0466 (equivalent to 3 mg/kg AZD4320)
  effect on QRS amplitude: no effect on QRS amplitude
[1]; [4]
  Effects: No effect level
  Tolerated?: Yes
[1]; [5]
  Tolerated?: Yes
  ↓QRS amplitude (% decrease): 30%
[1]; [6]
  Effects other than QRS amplitude: ↑DBP, ↑HR, ↓dP/dt+, ↓PR interval, ↓LVEDP
  Tolerated?: Yes
  ↓QRS amplitude (% decrease): 33%
[2]; 1 hr
  Total Concentration in Plasma as AZD4320, Mean (Fig S9): 117.3 µg/mL
[2]; 3 hr
  Total Concentration in Plasma as AZD4320, Mean (Fig S9): 49.1 µg/mL
[2]; 9 hr
  Total Concentration in Plasma as AZD4320, Mean (Fig S9): 36.3 µg/mL
[2]; 20 hr
  Total Concentration in Plasma as AZD4320, Mean (Fig S9): 8.0 µg/mL
[3]
  effect on QRS amplitude: no effect on QRS amplitude; also recorded: no reduction in QRS amplitude; also recorded: negligible effect on QRS amplitude
